This assay deals with T1, VEGF (human, UniProt P15692-4 27-191, limits assumed).
T1 construct: Biotinylated in the KDR-IgG ELISA, amine-coupled to the chip in BIAcore; also called biotinylated VEGF; vascular endothelial growth factor
In words: competitive phage-ELISA, relative to pY0192. On the procedure: In such an assay, phages were first serially diluted to determine a fractional saturation titer which was then held constant and used to incubate with varying concentrations of VEGF (starting at 200 nM to 0 nM) in solution. The mixture was then transferred onto plate precoated with VEGF (2 μg/mL) and blocked with 5% instant milk, and allowed to equilibrate for 1 hour at room temperature. Thereafter, the phage solution was removed and the remaining bound phages were detected with a solution of rabbit anti-phage antibody mixed with goat anti-rabbit conjugate of horse radish peroxidase. After an hour incubation at room temperature, the plate was developed with a chromogenic substrate, o-phenylenediamine (Sigma). The reaction was stopped with addition of ½ volume of 2.5 M H₂SO₄. Optical density at 492 nm was measured on a spectrophotometric plate reader.
IC50's were determined in a competitive phage-ELISA assay.

These results are taken from patent publication US20050112126A1 (Genentech, published 2005).

T1 sequence (P15692 other isoform, or with tags, fused parts or gaps limits assumed): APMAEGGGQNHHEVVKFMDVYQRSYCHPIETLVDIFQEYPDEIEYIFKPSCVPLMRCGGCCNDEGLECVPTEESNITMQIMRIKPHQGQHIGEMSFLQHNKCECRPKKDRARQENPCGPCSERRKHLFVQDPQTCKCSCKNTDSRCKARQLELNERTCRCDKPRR

B1: pY0192 VL A25S (Fab, V domains shown)
VH: EVQLVESGGGLVQPGGSLRLSCAASGYTFTNYGINWVRQAPGKGLEWVGWINTYTGEPTYAADFKRRFTFSLDTSKSTAYLQMNSLRAEDTAVYYCAKYPHYYGSSHWYFDVWGQGTL
VL: DIQLTQSPSSLSASVGDRVTITCRSNEQLSNYLNWYQQKPGKAPKVLIYFTSSLHSGVPSRFSGSGSGTDFTLTISSLQPEDFATYYCQQYSTVPWTFGQGTKVEIKR
notes: Ala-scan variant of pY0192; Fab on phage
For the molecule B1, the “IC50 (mut)/IC50 (wt)” value came to 1 ratio.

B2: pY0192 VL L29A (Fab, V domains shown)
VH: EVQLVESGGGLVQPGGSLRLSCAASGYTFTNYGINWVRQAPGKGLEWVGWINTYTGEPTYAADFKRRFTFSLDTSKSTAYLQMNSLRAEDTAVYYCAKYPHYYGSSHWYFDVWGQGTL
VL: DIQLTQSPSSLSASVGDRVTITCRANEQASNYLNWYQQKPGKAPKVLIYFTSSLHSGVPSRFSGSGSGTDFTLTISSLQPEDFATYYCQQYSTVPWTFGQGTKVEIKR
notes: as for B1
With B2, the “IC50 (mut)/IC50 (wt)” value was 1 ratio.

B3: pY0192 VL Q28A (Fab, V domains shown)
VH: EVQLVESGGGLVQPGGSLRLSCAASGYTFTNYGINWVRQAPGKGLEWVGWINTYTGEPTYAADFKRRFTFSLDTSKSTAYLQMNSLRAEDTAVYYCAKYPHYYGSSHWYFDVWGQGTL
VL: DIQLTQSPSSLSASVGDRVTITCRANEALSNYLNWYQQKPGKAPKVLIYFTSSLHSGVPSRFSGSGSGTDFTLTISSLQPEDFATYYCQQYSTVPWTFGQGTKVEIKR
notes: as for B1
Turning to B3, the “IC50 (mut)/IC50 (wt)” value was 1 ratio.

B4: pY0192 VL E27A (Fab, V domains shown)
VH: EVQLVESGGGLVQPGGSLRLSCAASGYTFTNYGINWVRQAPGKGLEWVGWINTYTGEPTYAADFKRRFTFSLDTSKSTAYLQMNSLRAEDTAVYYCAKYPHYYGSSHWYFDVWGQGTL
VL: DIQLTQSPSSLSASVGDRVTITCRANAQLSNYLNWYQQKPGKAPKVLIYFTSSLHSGVPSRFSGSGSGTDFTLTISSLQPEDFATYYCQQYSTVPWTFGQGTKVEIKR
notes: as for B1
As for B4, the “IC50 (mut)/IC50 (wt)” value is 1 ratio.

B5: pY0192 VL L33A (Fab, V domains shown)
VH: EVQLVESGGGLVQPGGSLRLSCAASGYTFTNYGINWVRQAPGKGLEWVGWINTYTGEPTYAADFKRRFTFSLDTSKSTAYLQMNSLRAEDTAVYYCAKYPHYYGSSHWYFDVWGQGTL
VL: DIQLTQSPSSLSASVGDRVTITCRANEQLSNYANWYQQKPGKAPKVLIYFTSSLHSGVPSRFSGSGSGTDFTLTISSLQPEDFATYYCQQYSTVPWTFGQGTKVEIKR
notes: as for B1
Regarding B5, the “IC50 (mut)/IC50 (wt)” value was 2 ratio.

B6: pY0192 VL N31A (Fab, V domains shown)
VH: EVQLVESGGGLVQPGGSLRLSCAASGYTFTNYGINWVRQAPGKGLEWVGWINTYTGEPTYAADFKRRFTFSLDTSKSTAYLQMNSLRAEDTAVYYCAKYPHYYGSSHWYFDVWGQGTL
VL: DIQLTQSPSSLSASVGDRVTITCRANEQLSAYLNWYQQKPGKAPKVLIYFTSSLHSGVPSRFSGSGSGTDFTLTISSLQPEDFATYYCQQYSTVPWTFGQGTKVEIKR
notes: Ala-scan variant of pY0192; Fab on phage; also called N31A (VL)
On to B6, for which the “IC50 (mut)/IC50 (wt)” value came out at 2 ratio.

B7: pY0192 VL N26A (Fab, V domains shown)
VH: EVQLVESGGGLVQPGGSLRLSCAASGYTFTNYGINWVRQAPGKGLEWVGWINTYTGEPTYAADFKRRFTFSLDTSKSTAYLQMNSLRAEDTAVYYCAKYPHYYGSSHWYFDVWGQGTL
VL: DIQLTQSPSSLSASVGDRVTITCRAAEQLSNYLNWYQQKPGKAPKVLIYFTSSLHSGVPSRFSGSGSGTDFTLTISSLQPEDFATYYCQQYSTVPWTFGQGTKVEIKR
notes: as for B1
As for B7, the “IC50 (mut)/IC50 (wt)” value is 1 ratio.

B8: pY0192 VL H55A (Fab, V domains shown)
VH: EVQLVESGGGLVQPGGSLRLSCAASGYTFTNYGINWVRQAPGKGLEWVGWINTYTGEPTYAADFKRRFTFSLDTSKSTAYLQMNSLRAEDTAVYYCAKYPHYYGSSHWYFDVWGQGTL
VL: DIQLTQSPSSLSASVGDRVTITCRANEQLSNYLNWYQQKPGKAPKVLIYFTSSLASGVPSRFSGSGSGTDFTLTISSLQPEDFATYYCQQYSTVPWTFGQGTKVEIKR
notes: as for B1
In the case of B8, the “IC50 (mut)/IC50 (wt)” value was 1 ratio.

B9: pY0192 VL Q89A (Fab, V domains shown)
VH: EVQLVESGGGLVQPGGSLRLSCAASGYTFTNYGINWVRQAPGKGLEWVGWINTYTGEPTYAADFKRRFTFSLDTSKSTAYLQMNSLRAEDTAVYYCAKYPHYYGSSHWYFDVWGQGTL
VL: DIQLTQSPSSLSASVGDRVTITCRANEQLSNYLNWYQQKPGKAPKVLIYFTSSLHSGVPSRFSGSGSGTDFTLTISSLQPEDFATYYCAQYSTVPWTFGQGTKVEIKR
notes: as for B1
For the molecule B9, the “IC50 (mut)/IC50 (wt)” value is 4 ratio.

B10: pY0192 VL Q90A (Fab, V domains shown)
VH: EVQLVESGGGLVQPGGSLRLSCAASGYTFTNYGINWVRQAPGKGLEWVGWINTYTGEPTYAADFKRRFTFSLDTSKSTAYLQMNSLRAEDTAVYYCAKYPHYYGSSHWYFDVWGQGTL
VL: DIQLTQSPSSLSASVGDRVTITCRANEQLSNYLNWYQQKPGKAPKVLIYFTSSLHSGVPSRFSGSGSGTDFTLTISSLQPEDFATYYCQAYSTVPWTFGQGTKVEIKR
notes: as for B1
For B10, the “IC50 (mut)/IC50 (wt)” value worked out at 3 ratio.

B11: pY0192 VL F50A (Fab, V domains shown)
VH: EVQLVESGGGLVQPGGSLRLSCAASGYTFTNYGINWVRQAPGKGLEWVGWINTYTGEPTYAADFKRRFTFSLDTSKSTAYLQMNSLRAEDTAVYYCAKYPHYYGSSHWYFDVWGQGTL
VL: DIQLTQSPSSLSASVGDRVTITCRANEQLSNYLNWYQQKPGKAPKVLIYATSSLHSGVPSRFSGSGSGTDFTLTISSLQPEDFATYYCQQYSTVPWTFGQGTKVEIKR
notes: as for B1
Turning to B11, the “IC50 (mut)/IC50 (wt)” value worked out at 1 ratio.

B12: pY0192 VL N34A (Fab, V domains shown)
VH: EVQLVESGGGLVQPGGSLRLSCAASGYTFTNYGINWVRQAPGKGLEWVGWINTYTGEPTYAADFKRRFTFSLDTSKSTAYLQMNSLRAEDTAVYYCAKYPHYYGSSHWYFDVWGQGTL
VL: DIQLTQSPSSLSASVGDRVTITCRANEQLSNYLAWYQQKPGKAPKVLIYFTSSLHSGVPSRFSGSGSGTDFTLTISSLQPEDFATYYCQQYSTVPWTFGQGTKVEIKR
notes: as for B1
In the case of B12, the “IC50 (mut)/IC50 (wt)” value was 4 ratio.

B13: pY0192 VL R24A (Fab, V domains shown)
VH: EVQLVESGGGLVQPGGSLRLSCAASGYTFTNYGINWVRQAPGKGLEWVGWINTYTGEPTYAADFKRRFTFSLDTSKSTAYLQMNSLRAEDTAVYYCAKYPHYYGSSHWYFDVWGQGTL
VL: DIQLTQSPSSLSASVGDRVTITCAANEQLSNYLNWYQQKPGKAPKVLIYFTSSLHSGVPSRFSGSGSGTDFTLTISSLQPEDFATYYCQQYSTVPWTFGQGTKVEIKR
notes: as for B1
In the case of B13, the “IC50 (mut)/IC50 (wt)” value stood at 1 ratio.

B14: pY0192 VL P95A (Fab, V domains shown)
VH: EVQLVESGGGLVQPGGSLRLSCAASGYTFTNYGINWVRQAPGKGLEWVGWINTYTGEPTYAADFKRRFTFSLDTSKSTAYLQMNSLRAEDTAVYYCAKYPHYYGSSHWYFDVWGQGTL
VL: DIQLTQSPSSLSASVGDRVTITCRANEQLSNYLNWYQQKPGKAPKVLIYFTSSLHSGVPSRFSGSGSGTDFTLTISSLQPEDFATYYCQQYSTVAWTFGQGTKVEIKR
notes: as for B1
On to B14, for which the “IC50 (mut)/IC50 (wt)” value came to 3 ratio.

B15: pY0192 VL L54A (Fab, V domains shown)
VH: EVQLVESGGGLVQPGGSLRLSCAASGYTFTNYGINWVRQAPGKGLEWVGWINTYTGEPTYAADFKRRFTFSLDTSKSTAYLQMNSLRAEDTAVYYCAKYPHYYGSSHWYFDVWGQGTL
VL: DIQLTQSPSSLSASVGDRVTITCRANEQLSNYLNWYQQKPGKAPKVLIYFTSSAHSGVPSRFSGSGSGTDFTLTISSLQPEDFATYYCQQYSTVPWTFGQGTKVEIKR
notes: as for B1
On to B15, for which the “IC50 (mut)/IC50 (wt)” value was 1 ratio.
